From paper PMC11997328, “Structural and functional characterization of the extended-diKH domain from the antiviral endoribonuclease KHNYN”

Key:
KHNYN ex-diKH [1] = target: T1, KHNYN ex-diKH (human, UniProt O15037 8-200); assay: EMSA; 20 uM protein, 0.2 uM RNA; BLI: 20 mM Tris pH 8.0, 50 mM NaCl, 0.5 mM TCEP, 0.01% Tween 20, 8 U/ml RNasin Plus, 25 °C; EMSA: 20 mM Tris pH 8.0, 50 mM NaCl, 0.5 mM TCEP, 5% glycerol, room; settings: protein: recombinant; tags: N-terminal StrepII tag removed by HRV 3C protease; label: 5'-FAM
ZAP RBD [2] = target: T2, ZAP RBD (human, UniProt Q7Z2W4 1-227); assay: BLI; BLI: 20 mM Tris pH 8.0, 50 mM NaCl, 0.5 mM TCEP, 0.01% Tween 20, 8 U/ml RNasin Plus, 25 °C; EMSA: 20 mM Tris pH 8.0, 50 mM NaCl, 0.5 mM TCEP, 5% glycerol, room; settings: protein: recombinant; tags: N-terminal StrepII tag removed by HRV 3C protease; label: 5'-biotin
KHNYN ex-diKH [3] = target: T1, KHNYN ex-diKH; assay: BLI; up to 100 uM protein; BLI: 20 mM Tris pH 8.0, 50 mM NaCl, 0.5 mM TCEP, 0.01% Tween 20, 8 U/ml RNasin Plus, 25 °C; EMSA: 20 mM Tris pH 8.0, 50 mM NaCl, 0.5 mM TCEP, 5% glycerol, room; settings: protein: recombinant; tags: N-terminal StrepII tag removed by HRV 3C protease; label: 5'-biotin
IMP1(KH1-KH2) = IMP1(KH1-KH2) (UniProt Q9NZI8 194-369); assay: BLI; low uM affinity; value not in material; BLI: 20 mM Tris pH 8.0, 50 mM NaCl, 0.5 mM TCEP, 0.01% Tween 20, 8 U/ml RNasin Plus, 25 °C; EMSA: 20 mM Tris pH 8.0, 50 mM NaCl, 0.5 mM TCEP, 5% glycerol, room; settings: protein: recombinant; label: 5'-biotin
ZAP RBD [4] = target: T2, ZAP RBD; assay: EMSA; 2 uM protein, 0.2 uM RNA; BLI: 20 mM Tris pH 8.0, 50 mM NaCl, 0.5 mM TCEP, 0.01% Tween 20, 8 U/ml RNasin Plus, 25 °C; EMSA: 20 mM Tris pH 8.0, 50 mM NaCl, 0.5 mM TCEP, 5% glycerol, room; settings: protein: recombinant; tags: N-terminal StrepII tag removed by HRV 3C protease; label: 5'-FAM

T1 sequence (O15037 8-200): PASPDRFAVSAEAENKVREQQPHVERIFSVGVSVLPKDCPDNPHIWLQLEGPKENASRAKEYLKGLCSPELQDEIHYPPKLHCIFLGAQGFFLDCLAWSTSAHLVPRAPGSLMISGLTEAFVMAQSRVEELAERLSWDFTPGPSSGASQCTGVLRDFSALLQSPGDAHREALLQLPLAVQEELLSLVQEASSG
T2 sequence (Q7Z2W4 1-227): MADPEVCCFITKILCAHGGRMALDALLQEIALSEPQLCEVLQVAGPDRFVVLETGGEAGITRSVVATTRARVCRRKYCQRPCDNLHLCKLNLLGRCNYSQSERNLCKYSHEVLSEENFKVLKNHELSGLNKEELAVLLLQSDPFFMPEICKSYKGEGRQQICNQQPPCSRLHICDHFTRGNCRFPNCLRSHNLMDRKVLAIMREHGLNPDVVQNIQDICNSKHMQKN
Sequence of IMP1(KH1-KH2) (Q9NZI8 194-369): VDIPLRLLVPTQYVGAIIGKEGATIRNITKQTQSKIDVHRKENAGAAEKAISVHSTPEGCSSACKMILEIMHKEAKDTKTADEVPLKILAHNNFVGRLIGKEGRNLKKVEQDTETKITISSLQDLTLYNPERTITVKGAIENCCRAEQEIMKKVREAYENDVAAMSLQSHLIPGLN

| Binder | binding result (KHNYN ex-diKH [1]) | binding result (KHNYN ex-diKH [3]) | other results |
| --- | --- | --- | --- |
| AUAACAAAUACACUAAAAUACAAAUCAGAAAAU (ssRNA) [A-rich 33mer] | no binding |  |  |
| UAAUCGU (ssRNA) [CpG RNA (Bi-UAAUCGU)] |  | no binding | Kd (ZAP RBD [2]): 30 nM |
| GCAACCACCACUCUAUUUUGUGCAUCAGAUGCU (ssRNA) [CpG-depleted 33mer] | no binding |  |  |
| UUCAGGU (ssRNA) [non-CpG RNA (Bi-UUCAGGU)] |  | no binding | Kd (ZAP RBD [2]): 740 nM |
| CUCCUCCCUACACUCCCCUCUCCCGCCGCCCCU (ssRNA) [C-rich 33mer] | no binding |  |  |
| UUCUGUU (ssRNA) [CUG RNA (Bi-UUCUGUU)] |  | no binding | binding result (IMP1(KH1-KH2)): binds |
| GCAACGACGACGCUAUUUUGCGCAUCAGACGCG (ssRNA) [CpG-rich 33mer] | no binding |  | binding result (ZAP RBD [4]): binds |
| GUAACUAAUACUCUAUUUUGUUAAUCAGAUAAU (ssRNA) [AU-rich 33mer] | no binding |  |  |
| GUUUCUUUUACUCUUUGUUACUUUUCAGUUAAU (ssRNA) [U-rich 33mer] | no binding |  |  |
